Here are results for 9 molecules from patent publication US20250361297A1 (ADAPTAM THERAPEUTICS S L, published 2025).

The target of one test is T1, CD3 on Jurkat cells (UniProt P07766 23-207).
T1 construct: whole, on cells; Whole CD3 complex on cells; also called CD3-expressing Jurkat cells; Jurkat cells expressing CD3
As to the kind of experiment: flow cytometry, Jurkat cells expressing CD3, gMFI. Background: Flow cytometry measures light scatter and fluorescence of single cells or particles in a stream.

Another test has as its target recombinant CD3 (UniProt P07766 23-126; P09693 23-116). As to the kind of experiment: antibody as ligand, 'Human CD3 epsilon&CD3 gamma' as analyte; legend paragraph 116 says BLI, methods paragraph 422 say Biacore SPR, table in RU. In general terms: In SPR one partner is held on a chip, and binding of the other changes the refractive index at the surface.
The target in test [1] is T2, human Siglec-15, full length, expressed on cells (human, UniProt Q6ZMC9 20-328).
T2 construct: also called hS15; MOLM-13 Siglec-15 expressing cells
T2 sequence: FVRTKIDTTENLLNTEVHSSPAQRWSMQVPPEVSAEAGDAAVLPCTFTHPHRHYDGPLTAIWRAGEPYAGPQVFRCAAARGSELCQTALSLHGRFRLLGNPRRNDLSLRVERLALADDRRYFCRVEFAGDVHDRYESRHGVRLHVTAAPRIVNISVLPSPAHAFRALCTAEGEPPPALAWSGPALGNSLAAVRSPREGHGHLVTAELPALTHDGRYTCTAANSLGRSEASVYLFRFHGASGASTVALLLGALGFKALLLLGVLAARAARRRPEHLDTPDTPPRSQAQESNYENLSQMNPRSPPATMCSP
As to the kind of experiment: flow cytometry, HEK293T cells expressing human Siglec-15, anti-human IgG-PE, gMFI.

The target in test [2] is T2, human Siglec-15, full length, expressed …. As to the kind of experiment: flow cytometry, THP-1 cells overexpressing human Siglec-15, ADC titrated, anti-human IgG-PE, gMFI.
The target of test [3] is T3, truncated human Siglec-15 comprising only domain 2 (D2), expressed on HEK293T cells (human, UniProt Q6ZMC9 168-251, limits assumed).
T3 construct: also called domain 2-only human Siglec-15; Siglec-15 Domain 2 (D2) HEK293T cells
T3 sequence: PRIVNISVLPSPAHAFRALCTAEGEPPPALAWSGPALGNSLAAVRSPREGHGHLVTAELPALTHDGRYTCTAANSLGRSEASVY
As to the kind of experiment: flow cytometry, HEK293T cells expressing only domain 2 of human Siglec-15, fold change of Siglec15 gMFI relative to 2ry control.

The target in test [4] is T4, mouse Siglec-15, full length, expressed on HEK293T cells (mouse).
T4 construct: also called mS15; HEK293T cells expressing mouse Siglec-15
T4 chain: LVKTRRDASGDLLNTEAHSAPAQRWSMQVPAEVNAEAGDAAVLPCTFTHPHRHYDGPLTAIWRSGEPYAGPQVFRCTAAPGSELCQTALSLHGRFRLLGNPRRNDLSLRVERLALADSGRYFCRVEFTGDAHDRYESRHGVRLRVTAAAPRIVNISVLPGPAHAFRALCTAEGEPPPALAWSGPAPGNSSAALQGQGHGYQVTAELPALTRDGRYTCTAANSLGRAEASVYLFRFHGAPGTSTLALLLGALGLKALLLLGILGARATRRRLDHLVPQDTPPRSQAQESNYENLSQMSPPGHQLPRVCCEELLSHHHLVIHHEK
As to the kind of experiment: IgG1 titration, flow cytometry on HEK293T cells expressing mouse Siglec-15.

In test [5] the target is T2, human Siglec-15, full length, expressed …. As to the kind of experiment: IgG1 titration, flow cytometry on MOLM-13 human Siglec-15 cells.
Test [6] deals with T5, recombinant Siglec-15 (bispecific antibody affinity assay) (Homo sapiens (Human), UniProt Q6ZMC9 20-263, limits assumed).
T5 sequence: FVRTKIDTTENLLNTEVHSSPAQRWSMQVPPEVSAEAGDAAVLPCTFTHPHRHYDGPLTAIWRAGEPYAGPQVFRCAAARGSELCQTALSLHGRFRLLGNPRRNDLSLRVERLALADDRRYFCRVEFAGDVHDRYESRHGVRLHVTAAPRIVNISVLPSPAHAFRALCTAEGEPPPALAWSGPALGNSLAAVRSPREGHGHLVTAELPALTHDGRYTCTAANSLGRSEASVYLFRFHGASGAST
As to the kind of experiment: antibody as ligand, human Siglec15 as analyte; legend paragraph 114 says BLI, methods paragraph 422 say Biacore SPR, table in RU.

For test [7], the target named is T2, human Siglec-15, full length, expressed …. As to the kind of experiment: flow cytometry, THP-1 cells overexpressing human Siglec-15, ADC titrated, anti-human IgG-PE, gMFI. The source holds these as a separate data set.
Test [8] shares this target. The test is described as above. This is another data set of the same source.
The target is the same in test [9]. As to the kind of experiment: flow cytometry, HEK293T cells expressing human Siglec-15, anti-human IgG-PE, MFI.
The target of test [10] is T6, recombinant human Siglec-15-his protein (Bonopusbio) (human, UniProt Q6ZMC9 20-263).
T6 construct: Bought (CW37-50 ug in the ELISA; the SPR paragraph prints CW70-50 ug); whole entry named; also called recombinant human Siglec-15 protein
T6 sequence: T5 sequence
As to the kind of experiment: SPR (Biacore T200), antibody on CM5 chip, Siglec-15-his as analyte.

Changes are numbered by the printed parent chain. In names and notes the source's numbering stands.

Sequence of recombinant CD3 (P07766 23-126, form in doubt, chain 1 of 2): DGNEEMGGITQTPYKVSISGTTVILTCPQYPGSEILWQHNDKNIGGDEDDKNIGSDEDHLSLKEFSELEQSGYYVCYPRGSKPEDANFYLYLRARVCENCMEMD
Sequence of recombinant CD3 (P09693 23-116, form in doubt, chain 2 of 2): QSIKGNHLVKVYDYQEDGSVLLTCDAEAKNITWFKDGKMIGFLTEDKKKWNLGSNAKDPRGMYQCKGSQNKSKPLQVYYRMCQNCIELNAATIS
T1 sequence (P07766 23-207): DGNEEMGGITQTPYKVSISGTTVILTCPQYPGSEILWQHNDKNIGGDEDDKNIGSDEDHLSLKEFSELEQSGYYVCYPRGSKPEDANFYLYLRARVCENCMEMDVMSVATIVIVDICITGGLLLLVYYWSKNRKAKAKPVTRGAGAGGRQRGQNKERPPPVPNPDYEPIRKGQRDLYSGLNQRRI

B1: parental anti-CD3 antibody (humanized SP34 CD3 antibody) (antibody, V domains shown)
VH: EVQLVESGGGLVKPGGSLRLSCAASGFTFNTYAMNWVRQAPGKGLEWVARIRSKYNNYATYYADSVKDRFTISRDDSKNTLYLQMNSLKTEDTAVYYCVRHGNFGNSYVSWFAYWGQGTLVTVSS
VL: QTVVTQEPSFSVSPGGTVTLTCRSSTGAVTTSNYANWVQQTPGQAPRGLIGGTNKRAPGVPARFSGSILGNKAALTITGAQADDEAEYFCALWYSNLWVFGGGTKLTVL
notes: also called anti-human CD3 humanized antibody; anti-CD3 mAb
Usually EC50 (read off the curve) stands for the concentration that produces a half-maximal response. Low values mean an effect from little substance, high ones a need for much substance. As a reminder, the Kd is the concentration at which binding is half-saturated. A word on the koff: it is a measure of how fast the partners let go of each other. What is called kon is a measure of how fast the partners come together. Turning to B1, the concentration giving a half-maximal response (EC50 (read off the curve)) with CD3 on Jurkat cells was roughly 0.2 nM. In the test with recombinant CD3, the Kd was determined as 67.1 nM, the koff is 0.00713 s⁻¹ and the kon came to 106000 M⁻¹ s⁻¹.

B2: 5G12 (antibody, V domains shown)
VH: QVQLQQPGAELVKPGASVKMSCKASGYTFTSYWITWVIQRPGQGLEWIGDIYCGSDTMHYNEKFKNKATLTVDTSSSTAYMQLSSLTSEDSAVYYCARWWDYGSSYDYFDYWGQGTTLTVSS
VL: DIKMTQSPSSMYASLGERVTITCKASQDINSYLSWFQQKPGKSPKTLIYRANRLVDGVPSRFSGSGSGQDYSLTISSLEYEDMGIYYCLQYDEFPYTFGGGTKLEIKR
For the molecule B2, the “EC50 (read off the curve)” value in test [1] is roughly 1 nM.

B3: ZLA-1243-E01-MMAE (other)
VH: QVQLVQSGGGLVQPGRSLRLSCAASGFTFDDYAMHWVRQAPGKGLEWVSGISWNSGSIGYADSVKGRFTISRDNAKNSLYLQMNSLRAEDTALYYCAKGLWPSYDLDAFDIWGQGTMVTVSS
VL: QSALTQPASVSGSPGQSITLSCTGTSSDVGAYNFVSWYQQHPGTAPKLMIYEVSNRPSGVSDRFSGSKSGNTASLTISGLQAEDEADYYCSSYTSTIPPFVFGTGTKVTVL
modifications: vc-MMAE payload linker conjugated to the antibody; residue not stated
As for B3, in [2], the “EC50 (read off the curve)” value was roughly 3 nM.

B4: A2A5C7E8-3 (antibody, V domains shown)
VH: EVQLVQSGAEVKKPGESLRISCKGSGYSFTTYWISWVRQMPGKGLEWMGLIDPSDSYTNYSPSFKGHVTISTDKSISTAYLQWSSLKASDTAMYYCARGGYYGSEEDYWGQGTLVTVSS
VL: EIVLTQSPGTLSLSPGERATLSCRASQSVSSSRLAWFQQKSGQAPRLLIFDASSRATGIPDRFSGSGSGTDFTLTISRLEPEDFAVYYCQQYGSSPRTFGQGTKVEFKR
For the molecule B4, the “EC50 (read off the curve)” value in [1] was roughly 0.5 nM.

B5: ZLA-1243-A01 (antibody, V domains shown)
VH: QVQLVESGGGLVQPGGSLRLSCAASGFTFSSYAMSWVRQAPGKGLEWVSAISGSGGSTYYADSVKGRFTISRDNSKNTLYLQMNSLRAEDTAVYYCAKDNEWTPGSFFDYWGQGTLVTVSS
VL: QSALTQPASVSGSPGQSITISCTGTSSDVGGYNYVSWYQQHPGKAPKLMIYDVSNRPSGVSNRFSGSKSGNTASLTISGLQAEDEADYYCSSYTSSSTRVFGGGTKVTVL
notes: Fully human, from phage display; tested as full-length human IgG1 with silenced Fc (E233P, L234V, L235A, G236 deletion, D265G, A327Q, A330S, C-terminus lysine deletion)
Usually EC50 stands for the concentration needed to bring the measured effect to its halfway point. A higher EC50 goes with lower potency in that assay. For B5, the binding result in test [3] is “no binding”. Moreover, in test [1], the “EC50 (read off the curve)” value is roughly 1 nM. For the same molecule, the values for the EC50 in test [4] and in test [5] were 0.0753 µg/mL and 0.181 µg/mL, respectively.

B6: BsAb-1 (bispecific antibody, human IgG1, kappa, lambda, L234A L235A)
light 1: not shown
heavy 1: QVQLQQSGPELVKPGASVKISCKASGYAFSSSWMNWVKQRPGKGLEWIGRIYPGHGETNYNGKFKDKATVTADKSSSTTYMQLSSLTSEDSAVYFCARVDNSDPYYFDYWGQGTTLTVSSASTKGPSVFPLAPSSKSTSGGTAALGCLVKDYFPEPVTVSWNSGALTSGVHTFPAVLQSSGLYSLSSVVTVPSSSLGTQTYICNVNHKPSNTKVDKKVEPKSCDKTHTCPPCPAPEAAGGPSVFLFPPKPKDTLMISRTPEVTCVVVDVSHEDPEVKFNWYVDGVEVHNAKTKPREEQYNSTYRVVSVLTVLHQDWLNGKEYKCKVSNKALPAPIEKTISKAKGQPREPQVCTLPPSRDELTKNQVSLSCAVKGFYPSDIAVEWESNGQPENNYKTTPPVLDSDGSFFLVSKLTVDKSRWQQGNVFSCSVMHEALHNHYTQKSLSLSPGK
heavy 2: not shown
light 2: QTVVTQEPSFSVSPGGTVTLTCRSSTGAVTTSNYANWVQQTPGQAPRGLIGGTNKRAPGVPARFSGSILGNKAALTITGAQADDEAEYFCALWYSNLWVFGGGTKLTVLASTKGPSVFPLAPSSKSTSGGTAALGCLVKDYFPEPVTVSWNSGALTSGVHTFPAVLQSSGLYSLSSVVTVPSSSLGTQTYICNVNHKPSNTKVDKKVEPKSC
notes: S15B1 arm and humanized SP34 anti-CD3 arm; also called anti-Siglec-15/CD3 bispecific antibody, Format-1: KIH & CrossmAb
As for B6, the “EC50 (read off the curve)” value with CD3 on Jurkat cells is roughly 4 nM. In test [6], the Kd was 0.0865 nM, the koff is 0.00025 s⁻¹ and the kon is 2.89e+06 M⁻¹ s⁻¹. In the test with recombinant CD3, the Kd was 115 nM, the koff was found to be 0.011 s⁻¹ and the kon was determined as 95800 M⁻¹ s⁻¹.

B7: S15B1-MMAE ADC (other)
VH: QVQLQQSGPELVKPGASVKISCKASGYAFSSSWMNWVKQRPGKGLEWIGRIYPGHGETNYNGKFKDKATVTADKSSSTTYMQLSSLTSEDSAVYFCARVDNSDPYYFDYWGQGTTLTVSS
VL: DIVLTQSPASLAVSLGQRATISCRASKSVSTSGYSYMHWYQQKPGQPPKLLIYLASNLESGVPARFSGSGSGTDFTLNIHPVEEEDAATYYCQHGRELPFTFGSGTKLEIK
modifications: vc-MMAE payload linker conjugated to the antibody; residue not stated
notes: Antibody-drug conjugate; also called S15B1-based antibody-drug conjugate with MMAE
Take B7: the “EC50 (read off the curve)” value in [7] is roughly 8 nM.

B8: S15B1-Exatecan ADC (other)
VH: B7 VH
VL: B7 VL
modifications: MC-GGFG-Exatecan payload linker conjugated to the antibody; residue not stated
notes: Antibody-drug conjugate; also called S15B1-based antibody-drug conjugate with Exatecan
On to B8, for which the half-maximal effective concentration (EC50 (read off the curve)) in [8] was roughly 6 nM.

B9: S15B1-VH3 + VL1 (antibody, V domains shown)
VH: QVQLVQSGAEVKKPGASVKVSCKASGYAFSSSWMNWVKQAPGQGLEWIGRIYPGHGETNYNGKFKDRATMTADTSTSTVYMELSSLRSEDTAVYFCARVDNSDPYYFDYWGQGTTVTVSS
VL: B7 VL with L15P, S22T, N78T, H80N, E84A, A87T, T89N, S104G
notes: Humanized S15B1; also called humanized S15B1 VH3+VL1; huS15B1
On to B9, for which, in test [9], the 50% effective concentration (EC50 (read off the curve)) is roughly 1 nM. In addition, in test [10], the Kd is 0.069 nM, the dissociation rate constant (koff) amounted to 0.000257 s⁻¹ and the kon amounted to 3.73e+06 M⁻¹ s⁻¹.
